Numbered stars: 1 amine (or outer) side, 2 acyl side, 3 side chain; on linkers, the order of the positions; unused ones are H or OH. Square brackets hold non-standard residues; d marks the D form. * marks the point of attachment. Hyp(Bzl) = O-benzyl-trans-4-hydroxyproline, O=C([C@@H]1C[C@@H](OCc2ccccc2)CN1[*:1])[*:2]; Asp(NHPen) = N-omega-pentylasparagine, CCCCCNC(=O)C[C@H](N[*:1])C(=O)[*:2]; Pro(4S-NH2) = N[C@@H]1CN[C@H](C(=O)O)C1; Phe(3-F) = N[C@@H](Cc1cccc(F)c1)C(=O)O; Phe(4-F) = N[C@@H](Cc1ccc(F)cc1)C(=O)O; Phe(2-F) = N[C@@H](Cc1ccccc1F)C(=O)O; Arg(Me) = CNC(=N)NCCC[C@H](N)C(=O)O; Hyp = O=C(O)[C@@H]1C[C@@H](O)CN1; dNMeF = CN[C@H](Cc1ccccc1)C(=O)O; Aib = CC(C)(N)C(=O)O; Glycolyl = O=C(CO)*; azaGly = NNC(=O)O
The binders below were run against human OT7T175 (metastin receptor) (human) (UniProt Q969F8) (assay: cell-based or functional assay).
Chain of human OT7T175 (metastin receptor) (human) (Q969F8 whole entry L364H): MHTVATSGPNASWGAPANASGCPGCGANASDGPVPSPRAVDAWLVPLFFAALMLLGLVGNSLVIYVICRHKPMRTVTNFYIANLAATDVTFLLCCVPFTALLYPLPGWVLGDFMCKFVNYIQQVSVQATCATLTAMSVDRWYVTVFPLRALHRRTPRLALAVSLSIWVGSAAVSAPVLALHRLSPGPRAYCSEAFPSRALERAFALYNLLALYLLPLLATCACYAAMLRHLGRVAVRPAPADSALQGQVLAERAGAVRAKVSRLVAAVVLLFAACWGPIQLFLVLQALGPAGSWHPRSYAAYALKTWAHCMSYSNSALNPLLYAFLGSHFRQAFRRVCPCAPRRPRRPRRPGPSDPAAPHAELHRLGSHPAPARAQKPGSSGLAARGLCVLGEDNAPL

Row | Binder | intracellular Ca ion level-increasing activity [specific activity to Metastin (1-54)] (relative to Metastin (1-54))
1 | Ac-[dY][Aib]NT[Phe(3-F)][azaGly]L[Arg(Me)]W-NH2 (SMILES CNC(=N)NCCC[C@H](NC(=O)[C@H](CC(C)C)NC(=O)NNC(=O)[C@H](Cc1cccc(F)c1)NC(=O)[C@@H](NC(=O)[C@H](CC(N)=O)NC(=O)C(C)(C)NC(=O)[C@@H](Cc1ccc(O)cc1)NC(C)=O)[C@@H](C)O)C(=O)N[C@@H](Cc1c[nH]c2ccccc12)C(N)=O) [des(1)-Ac-[D-Tyr2,Aib3,Thr5,Phe(3F)6,AzaGly7,Arg(Me)9,Trp10]MS10] | 3.3
2 | Ac-[dY][dW][Asp(NHPen)]TF[azaGly]L[Arg(Me)]W-NH2 (SMILES CCCCCNC(=O)C[C@H](NC(=O)[C@@H](Cc1c[nH]c2ccccc12)NC(=O)[C@@H](Cc1ccc(O)cc1)NC(C)=O)C(=O)N[C@H](C(=O)N[C@@H](Cc1ccccc1)C(=O)NNC(=O)N[C@@H](CC(C)C)C(=O)N[C@@H](CCCNC(=N)NC)C(=O)N[C@@H](Cc1c[nH]c2ccccc12)C(N)=O)[C@@H](C)O) [des(1)-Ac-[D-Tyr2,D-Trp3,Asp(NHPen)4,Thr5,AzaGly7,Arg(Me)9,Trp10]MS10] | 0.7
3 | Ac-[dY][Hyp]NT[Phe(4-F)][azaGly]L[Arg(Me)]W-NH2 (SMILES CNC(=N)NCCC[C@H](NC(=O)[C@H](CC(C)C)NC(=O)NNC(=O)[C@H](Cc1ccc(F)cc1)NC(=O)[C@@H](NC(=O)[C@H](CC(N)=O)NC(=O)[C@@H]1C[C@@H](O)CN1C(=O)[C@@H](Cc1ccc(O)cc1)NC(C)=O)[C@@H](C)O)C(=O)N[C@@H](Cc1c[nH]c2ccccc12)C(N)=O) [des(1)-Ac-[D-Tyr2,Hyp3,Thr5,Phe(4F)6,AzaGly7,Arg(Me)9,Trp10]MS10] | 2.3
4 | Ac-[dY][dNMeF]NTF[azaGly]L[Arg(Me)]W-NH2 (SMILES CNC(=N)NCCC[C@H](NC(=O)[C@H](CC(C)C)NC(=O)NNC(=O)[C@H](Cc1ccccc1)NC(=O)[C@@H](NC(=O)[C@H](CC(N)=O)NC(=O)[C@@H](Cc1ccccc1)N(C)C(=O)[C@@H](Cc1ccc(O)cc1)NC(C)=O)[C@@H](C)O)C(=O)N[C@@H](Cc1c[nH]c2ccccc12)C(N)=O) [des(1)-Ac-[D-Tyr2,D-NMePhe3,Thr5,AzaGly7,Arg(Me)9,Trp10]MS10] | 1.8
5 | Ac-[dY]ENT[Phe(4-F)][azaGly]L[Arg(Me)]W-NH2 (SMILES CNC(=N)NCCC[C@H](NC(=O)[C@H](CC(C)C)NC(=O)NNC(=O)[C@H](Cc1ccc(F)cc1)NC(=O)[C@@H](NC(=O)[C@H](CC(N)=O)NC(=O)[C@H](CCC(=O)O)NC(=O)[C@@H](Cc1ccc(O)cc1)NC(C)=O)[C@@H](C)O)C(=O)N[C@@H](Cc1c[nH]c2ccccc12)C(N)=O) [des(1)-Ac-[D-Tyr2,Glu3,Thr5,Phe(4F)6,AzaGly7,Arg(Me)9,Trp10]MS10] | 2.7
6 | Glycolyl-[dY][Hyp]NTF[azaGly]L[Arg(Me)]W-NH2 (SMILES CNC(=N)NCCC[C@H](NC(=O)[C@H](CC(C)C)NC(=O)NNC(=O)[C@H](Cc1ccccc1)NC(=O)[C@@H](NC(=O)[C@H](CC(N)=O)NC(=O)[C@@H]1C[C@@H](O)CN1C(=O)[C@@H](Cc1ccc(O)cc1)NC(=O)CO)[C@@H](C)O)C(=O)N[C@@H](Cc1c[nH]c2ccccc12)C(N)=O) [des(1)-Glycoloyl-[D-Tyr2,Hyp3,Thr5,AzaGly7,Arg(Me)9,Trp10]MS10] | 1.5
7 | Ac-[dY][Aib]NT[Phe(2-F)][azaGly]L[Arg(Me)]W-NH2 (SMILES CNC(=N)NCCC[C@H](NC(=O)[C@H](CC(C)C)NC(=O)NNC(=O)[C@H](Cc1ccccc1F)NC(=O)[C@@H](NC(=O)[C@H](CC(N)=O)NC(=O)C(C)(C)NC(=O)[C@@H](Cc1ccc(O)cc1)NC(C)=O)[C@@H](C)O)C(=O)N[C@@H](Cc1c[nH]c2ccccc12)C(N)=O) [des(1)-Ac-[D-Tyr2,Aib3,Thr5,Phe(2F)6,AzaGly7,Arg(Me)9,Trp10]MS10] | 3.4
8 | Ac-[dY]GNT[Phe(3-F)][azaGly]L[Arg(Me)]W-NH2 (SMILES CNC(=N)NCCC[C@H](NC(=O)[C@H](CC(C)C)NC(=O)NNC(=O)[C@H](Cc1cccc(F)c1)NC(=O)[C@@H](NC(=O)[C@H](CC(N)=O)NC(=O)CNC(=O)[C@@H](Cc1ccc(O)cc1)NC(C)=O)[C@@H](C)O)C(=O)N[C@@H](Cc1c[nH]c2ccccc12)C(N)=O) [des(1)-Ac-[D-Tyr2,Gly3,Thr5,Phe(3F)6,AzaGly7,Arg(Me)9,Trp10]MS10] | 3.2
9 | Ac-[dY]KNT[Phe(4-F)][azaGly]L[Arg(Me)]W-NH2 (SMILES CNC(=N)NCCC[C@H](NC(=O)[C@H](CC(C)C)NC(=O)NNC(=O)[C@H](Cc1ccc(F)cc1)NC(=O)[C@@H](NC(=O)[C@H](CC(N)=O)NC(=O)[C@H](CCCCN)NC(=O)[C@@H](Cc1ccc(O)cc1)NC(C)=O)[C@@H](C)O)C(=O)N[C@@H](Cc1c[nH]c2ccccc12)C(N)=O) [des(1)-Ac-[D-Tyr2,Lys3,Thr5,Phe(4F)6,AzaGly7,Arg(Me)9,Trp10]MS10] | 3.4
10 | Ac-[dY]GNT[Phe(2-F)][azaGly]L[Arg(Me)]W-NH2 (SMILES CNC(=N)NCCC[C@H](NC(=O)[C@H](CC(C)C)NC(=O)NNC(=O)[C@H](Cc1ccccc1F)NC(=O)[C@@H](NC(=O)[C@H](CC(N)=O)NC(=O)CNC(=O)[C@@H](Cc1ccc(O)cc1)NC(C)=O)[C@@H](C)O)C(=O)N[C@@H](Cc1c[nH]c2ccccc12)C(N)=O) [des(1)-Ac-[D-Tyr2,Gly3,Thr5,Phe(2F)6,AzaGly7,Arg(Me)9,Trp10]MS10] | 8.8
11 | Ac-[dY][Hyp(Bzl)]NTF[azaGly]L[Arg(Me)]W-NH2 (SMILES CNC(=N)NCCC[C@H](NC(=O)[C@H](CC(C)C)NC(=O)NNC(=O)[C@H](Cc1ccccc1)NC(=O)[C@@H](NC(=O)[C@H](CC(N)=O)NC(=O)[C@@H]1C[C@@H](OCc2ccccc2)CN1C(=O)[C@@H](Cc1ccc(O)cc1)NC(C)=O)[C@@H](C)O)C(=O)N[C@@H](Cc1c[nH]c2ccccc12)C(N)=O) [des(1)-Ac-[D-Tyr2,Hyp(Bzl)3,Thr5,AzaGly7,Arg(Me)9,Trp10]MS10] | 1
12 | Ac-[dY]NTF[azaGly]L[Arg(Me)]W-NH2 (SMILES CNC(=N)NCCC[C@H](NC(=O)[C@H](CC(C)C)NC(=O)NNC(=O)[C@H](Cc1ccccc1)NC(=O)[C@@H](NC(=O)[C@H](CC(N)=O)NC(=O)[C@@H](Cc1ccc(O)cc1)NC(C)=O)[C@@H](C)O)C(=O)N[C@@H](Cc1c[nH]c2ccccc12)C(N)=O) [des(1-2)-Ac-[D-Tyr3,Thr5,AzaGly7,Arg(Me)9,Trp10]MS10] | 1.8
13 | Ac-[dY][Pro(4S-NH2)]NTF[azaGly]L[Arg(Me)]W-NH2 (SMILES CNC(=N)NCCC[C@H](NC(=O)[C@H](CC(C)C)NC(=O)NNC(=O)[C@H](Cc1ccccc1)NC(=O)[C@@H](NC(=O)[C@H](CC(N)=O)NC(=O)[C@@H]1C[C@H](N)CN1C(=O)[C@@H](Cc1ccc(O)cc1)NC(C)=O)[C@@H](C)O)C(=O)N[C@@H](Cc1c[nH]c2ccccc12)C(N)=O) [des(1)-Ac-[D-Tyr2,Pro(4NH2)3,Thr5,AzaGly7,Arg(Me)9,Trp10]MS10] | 2.1

From US20090105152A1
